According to patent US20240415889A1 (UNIVERSITY OF PITTSBURGH OF THE COMMONWEALTH SYSTEM OF …, published 2024):

How the values were obtained:
[1] = target: T1, single chain CD94/NKG2A-Fc (CD94/NKG2A-IgG1 fusion polypeptide) (human); experiment: indirect ELISA, coated CD94/NKG2A-Fc
T1 construct: Biotinylated in the panning and BLItz experiments; also called CD94/NKG2A polypeptide; recombinant CD94/NKG2A polypeptide; not shown: human IgG1 Fc
Protocol: (§1) Binding and specificity of Fab or IgG to single chain CD94/NKG2A-Fc or single chain CD94/NKG2C-Fc were analyzed through indirect ELISA. Briefly, Fc-fused proteins were coated on a 96 well plate (Corning, 3690) at 200 ng/well (50 μL volume) in PBS for 2 hours at room temperature. Blocking was carried out with 3% BSA in PBS for overnight at 4° C. Next day, various concentration of Fab or IgG was applied to antigen coated plates and incubated for 1 hour at 25° C. After three times washing, anti-FLAG mouse antibody (M2 clone)-HRP conjugated (Sigma, A8592, 1:3000 dilution) or anti-human kappa goat antibody-HRP conjugated (Invitrogen, A18853, 1:3000 dilution) was applied to detect binding of either Fab or IgG. Same volume of TMB (Thermo, PI34028) was added as a substrate, and then enzymatic reactions were stopped by adding of 2N […].

[2] = target: T2, single chain CD94/NKG2C-Fc (human); experiment: indirect ELISA, coated CD94/NKG2C-Fc
T2 construct: also called CD94/NKG2C polypeptide; single chain CD94/NKG2C polypeptide; not shown: Fc
Protocol: as §1

[3] = target: T3, CD94/NKG2A on the surface of primary human NK cells (human, UniProt Q13241 1-179; P26715 1-233); experiment: flow cytometry on primary NK cells, 10 nM antibody
T3 construct: Endogenous receptor on primary NK cells enriched from normal human PBMCs; also called intact NKG2A receptor on the surface of NK cell; cell surface NKG2A
Protocol: For investigation of NKG2A expression level of NK cells, enriched NK cells were activated with 50 IU/mL of hIL-2 and treated with the indicated antibodies (100 nM) for 24 hours at 37° C. After incubation with antibodies, cells were washed with cold PBS, and then the cell surface NKG2A was detected using a FITC- or PE-conjugated anti-human CD159a (NKG2A) antibody.

[4] = target: T1, single chain CD94/NKG2A-Fc …; experiment: BLItz biolayer interferometry

T1 sequence (chain, as listed by the source): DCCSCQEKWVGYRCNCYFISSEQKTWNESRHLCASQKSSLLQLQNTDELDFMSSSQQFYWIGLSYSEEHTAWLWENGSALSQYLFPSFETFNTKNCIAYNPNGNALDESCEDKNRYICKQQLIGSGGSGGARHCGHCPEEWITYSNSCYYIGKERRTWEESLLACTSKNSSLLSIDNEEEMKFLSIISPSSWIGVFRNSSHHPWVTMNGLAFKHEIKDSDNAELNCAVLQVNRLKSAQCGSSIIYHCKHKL
T2 sequence (chain, as listed by the source): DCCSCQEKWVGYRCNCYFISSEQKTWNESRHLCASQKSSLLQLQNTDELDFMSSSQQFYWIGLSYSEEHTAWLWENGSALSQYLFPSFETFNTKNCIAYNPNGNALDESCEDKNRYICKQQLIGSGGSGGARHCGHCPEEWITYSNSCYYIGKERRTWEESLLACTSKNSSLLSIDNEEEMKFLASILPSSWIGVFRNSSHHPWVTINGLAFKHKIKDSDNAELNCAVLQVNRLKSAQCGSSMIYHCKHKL
T3 sequence (Q13241 whole entry, chain 1 of 2): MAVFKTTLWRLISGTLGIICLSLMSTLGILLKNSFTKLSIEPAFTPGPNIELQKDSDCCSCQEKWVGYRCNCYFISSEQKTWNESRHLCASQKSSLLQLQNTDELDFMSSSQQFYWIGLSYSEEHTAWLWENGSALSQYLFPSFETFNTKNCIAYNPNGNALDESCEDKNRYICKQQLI
T3 sequence (P26715 whole entry, chain 2 of 2): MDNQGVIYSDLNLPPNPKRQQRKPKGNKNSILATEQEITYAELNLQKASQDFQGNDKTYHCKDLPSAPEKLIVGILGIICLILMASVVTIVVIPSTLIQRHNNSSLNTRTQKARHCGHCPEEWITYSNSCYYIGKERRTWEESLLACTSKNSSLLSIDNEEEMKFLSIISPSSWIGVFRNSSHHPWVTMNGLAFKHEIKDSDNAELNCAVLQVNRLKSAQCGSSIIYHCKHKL

| Binder | EC50 [1] | binding result [2] | binding result [3] | Kd [4] |
| --- | --- | --- | --- | --- |
| Fab Clone #1 (1B2) (Fab, V domains shown, Fab from a phage library, expressed in E. coli and purified on Ni-NTA; detected in ELISA with an anti-FLAG antibody) VH: QVQLVESGGGLVKPGGSLRLSCAASGFTFSDYYMSWIRQAPGKGLEWVSYISSSGSTIYYADSVKGRFTISRDNAKNSLYLQMNSLRAEDTAVYYCARGFYMDAWGKGTTVTVSS VL: DIQMTQSPSSLSASVGDRVTITCRASQSISSYLNWYQQKPGKAPKLLIYAASSLQSGVPSRFSGSGSGTDFTLTISSLQPEDFGVYYCQYYGISPPFTFGPGTKVDIKR | 2.7 nM | no binding | – | – |
| IgG Clone #1 (1B2, IgG1-LALA-PG) (antibody, V domains shown, Human IgG1 format with L234A, L235A and P329G (LALA-PG / AAG) in the Fc; Light chain detected with an anti-human kappa antibody; also called Clone #1 IgG; 1B2 (IgG Clone #1)) VH: QVQLVESGGGLVKPGGSLRLSCAASGFTFSDYYMSWIRQAPGKGLEWVSYISSSGSTIYYADSVKGRFTISRDNAKNSLYLQMNSLRAEDTAVYYCARGFYMDAWGKGTTVTVSS VL: DIQMTQSPSSLSASVGDRVTITCRASQSISSYLNWYQQKPGKAPKLLIYAASSLQSGVPSRFSGSGSGTDFTLTISSLQPEDFGVYYCQYYGISPPFTFGPGTKVDIKR | – | – | binds | 1.1 nM |
| IgG Clone #2 (1B2-6, IgG1-LALA-PG) (antibody, V domains shown, Human IgG1 format with L234A, L235A and P329G; also called Clone #2 IgG (anti-NKG2A)) VH: EVQLVESGGGLVKPGGSLRLSCAASGFTFSGYYMSWIRQAPGKGLEWLAYISNSGRTIYYADSVKGRFTISRDNSNSSLYLQMNSLRAEDTAVYYCARGFYMDAWGKGTTVTVSS VL: DIQMTQSPSSLSASVGDRVTITCRASQSISSYLNWYQQKPGKAPKLLIYAASSLQSGVPSRFSGSGSGTDFTLTISSLQPEDFGVYYCQYYGISPPFTFGPGTKVDIKR | 0.6 nM | no binding | – | – |
